Laboratory results published in US20030148958A1 (PROCTER AND GAMBLE, published 2003).
Ends that are not written are not given here.

Assays:
[1] = target: T1, corticotropin releasing factor 2 receptor; assay: cell-based or functional assay
T1 sequence (Q13324 whole entry, species assumed, looked up): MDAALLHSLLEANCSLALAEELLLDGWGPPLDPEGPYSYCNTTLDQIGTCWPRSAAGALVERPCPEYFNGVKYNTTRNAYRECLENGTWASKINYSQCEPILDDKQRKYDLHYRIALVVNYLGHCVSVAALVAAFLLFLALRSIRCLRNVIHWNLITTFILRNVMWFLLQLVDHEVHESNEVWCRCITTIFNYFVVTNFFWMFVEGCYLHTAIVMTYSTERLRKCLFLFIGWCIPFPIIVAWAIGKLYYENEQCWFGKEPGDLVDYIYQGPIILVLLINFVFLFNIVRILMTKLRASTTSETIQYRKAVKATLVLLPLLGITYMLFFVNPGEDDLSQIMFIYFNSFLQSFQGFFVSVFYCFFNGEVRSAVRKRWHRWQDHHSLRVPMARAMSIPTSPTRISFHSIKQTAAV

[2] = target: corticotropin releasing factor 1 receptor; assay: cell-based or functional assay
Throughout, for CRF1R Emax: reference of the scale not given here.
Throughout, for CRF2R Emax: reference of the scale not given here.

Row | Binder | CRF2R EC50 [1] [nM] | CRF2R Emax [1] [%] | CRF1R EC50 [2] [nM] | CRF1R Emax [2] [%]
1 | IVLSLDVPIGLLQILLEQEKARAAREQATTNARILARV-NH2 [SEQ ID NO 121] | 5.67 | – | – | –
2 | IVLSLDVPIGLLQILLEQEKARAAREQATTNARILARV-NH2 [SEQ ID NO 107] | 12.1 | – | – | –
3 | SQEPPISLDLPLELLREVLEMTKADQLAQQAHSNRKLLDIA-NH2 [SEQ ID NO 89] | 100 | 12.7 | – | –
4 | ZGPPISIDLSIGLLRKMIEIEKQEKEKQQAANNRLLLDTI (C-terminal amide) [SEQ ID NO 25] | 81 | 81.9 | 677 | 92.3
5 | ZGPPISIDLPTLLLRKMIEIEKQEKEKQQAANNRLLLDTI (C-terminal amide) [SEQ ID NO 51] | 20.6 | 100 | > 1000 | 48
6 | ZGPPISIDLPTFLLRKMIEIEKQEKEKQQAANNRLLLDTI (C-terminal amide) [SEQ ID NO 44] | 19.1 | 87 | 944 | 64
7 | ZGPPISIDLPSYLLRKMIEIEKQEKEKQQAANNRLLLDTI (C-terminal amide) [SEQ ID NO 56] | 50.4 | 87 | > 100 | 14
8 | ZGPPISIDLPTWLLRKMIEIEKQEKEKQQAANNRLLLDTI (C-terminal amide) [SEQ ID NO 41] | 18.3 | 100 | > 1000 | 43
9 | ZGPPISIDLPTTLLRKMIEIEKQEKEKQQAANNRLLLDTI (C-terminal amide) [SEQ ID NO 42] | > 100 | 88 | > 1000 | 10
10 | ZGPPISIDLPILLLRKMIEIEKQEKEKQQAANNRLLLDTI (C-terminal amide) [SEQ ID NO 35] | 15.6 | 88 | > 1000 | 74
11 | ZGPPISIDLPQVLLRKMIEIEKQEKEKQQAANNRLLLDTI (C-terminal amide) [SEQ ID NO 197] | 48.1 | 94 | – | –
12 | ZGPPISIDLPIKLLRKMIEIEKQEKEKQQAANNRLLLDTI (C-terminal amide) [SEQ ID NO 34] | > 100 | 45 | > 1000 | 11
13 | ZGPPISIDLPIALLRKMIEIEKQEKEKQQAANNRLLLDTI (C-terminal amide) [SEQ ID NO 47] | > 100 | 66 | 1000 | 12
14 | ZGPPISIDLPAYLLRKMIEIEKQEKEKQQAANNRLLLDTI (C-terminal amide) [SEQ ID NO 32] | 20.2 | 98 | 606 | 94
15 | ZGPPISIDLPKYLLRKMIEIEKQEKEKQQAANNRLLLDTI (C-terminal amide) [SEQ ID NO 58] | 71.6 | 100 | > 100 | 16
16 | ZGPPISIDLSLELLRKMIEIEKQEKEKQQAANNALLLATI (C-terminal amide) [SEQ ID NO 30] | 18.7 | 85.5 | 100 | 100
17 | ZGPPISIDLPIRLLRKMIEIEKQEKEKQQAANNRLLLDTI (C-terminal amide) [SEQ ID NO 38] | 71.9 | 91 | > 1000 | 11
18 | ZGPPISIDLPPYLLRKMIEIEKQEKEKQQAANNRLLLDTI (C-terminal amide) [SEQ ID NO 57] | > 100 | 46 | > 100 | 12
19 | ZGPPISIDLPWYLLRKMIEIEKQEKEKQQAANNRLLLDTI (C-terminal amide) [SEQ ID NO 55] | 7.95 | 95 | 11.6 | 92

Row | Binder | CRF2R EC50 [1] [nM] | CRF2R Emax [1] [%] | CRF1R EC50 [2] [nM] | CRF1R Emax [2] [%]
20 | ZGPPISIDLPVYLLRKMIEIEKQEKEKQQAANNRLLLDTI (C-terminal amide) [SEQ ID NO 39] | 58.2 | 94 | 1000 | 63
21 | ZGPPISIDLPIDLLRKMIEIEKQEKEKQQAANNRLLLDTI (C-terminal amide) [SEQ ID NO 28] | 100 | 15 | > 1000 | 2
22 | ZGPPISIDLPIPLLRKMIEIEKQEKEKQQAANNRLLLDTI (not fully specified; C-terminal amide) [SEQ ID NO 26] | 91.8 | 86 | > 1000 | 16
23 | ZGPPISIDLPTSLLRKMIEIEKQEKEKQQAANNRLLLDTI (C-terminal amide) [SEQ ID NO 43] | > 100 | 67 | > 1000 | 10
24 | ZGPPISIDLPTVLLRKMIEIEKQEKEKQQAANNRLLLDTI (C-terminal amide) [SEQ ID NO 46] | > 100 | 100 | > 1000 | 17
25 | ZGPPISIDLPTPLLRKMIEIEKQEKEKQQAANNRLLLDTI (C-terminal amide) [SEQ ID NO 52] | > 100 | 10 | > 1000 | 13
26 | ZGPPISIDLPDYLLRKMIEIEKQEKEKQQAANNRLLLDTI (C-terminal amide) [SEQ ID NO 54] | 100 | 11 | 1000 | 10
27 | ZGPPISIDLPIILLRKMIEIEKQEKEKQQAANNRLLLDTI (C-terminal amide) [SEQ ID NO 36] | 14.8 | 73 | > 1000 | 33
28 | ZGPPISIDLPTDLLRKMIEIEKQEKEKQQAANNRLLLDTI (C-terminal amide) [SEQ ID NO 49] | > 100 | 37 | > 1000 | 15
29 | ZGPPISIDLPIVLLRKMIEIEKQEKEKQQAANNRLLLDTI (C-terminal amide) [SEQ ID NO 31] | 30.8 | 100 | > 1000 | 18
30 | ZGPPISIDLPIFLLRKMIEIEKQEKEKQQAANNRLLLDTI (C-terminal amide) [SEQ ID NO 29] | 16 | 100 | > 1000 | 79
31 | ZGPPISIDLPTKLLRKMIEIEKQEKEKQQAANNRLLLDTI (C-terminal amide) [SEQ ID NO 45] | > 100 | 44 | > 1000 | 7
32 | ZGPPISIDLPTILLRKMIEIEKQEKEKQQAANNRLLLDTI (C-terminal amide) [SEQ ID NO 50] | 19 | 94 | > 1000 | 42
33 | ZGPPISIDLPQQLLRKMIEIEKQEKEKQQAANNRLLLDTI (C-terminal amide) [SEQ ID NO 198] | 29.9 | 100 | – | –
34 | ZGPPISIDLPINLLRKMIEIEKQEKEKQQAANNRLLLDTI (C-terminal amide) [SEQ ID NO 37] | > 100 | 51 | > 1000 | 5
35 | ZGPPISIDLPQYLLRKMIEIEKQEKEKQQAANNRLLLDTI (C-terminal amide) [SEQ ID NO 27] | 10.7 | 96 | 325 | 100
36 | ZGPPISIDLPEYLLRKMIEIEKQEKEKQQAANNRLLLDTI (C-terminal amide) [SEQ ID NO 48] | 100 | 14 | 1000 | 21
37 | ZGPPISIDLPYYLLRKMIEIEKQEKEKQQAANNRLLLDTI (C-terminal amide) [SEQ ID NO 40] | 6.95 | 93 | 102 | 99
38 | IVLSLDVPIGLLQILLEQEKARAAREQATTNARILARV-NH2 [SEQ ID NO 3] | 12.1 | – | – | –
